The source of these data is article PMC5925078.

The target in assay [1] is TNFR2 ECD (Homo sapiens) (UniProt P20333). Description: SPR. The settings on record: cited from earlier work.
The target in assay [2] is TNFR1 ECD (Homo sapiens) (UniProt P19438). The experiment in a line: SPR. The settings on record: cited from earlier work.
The target in assay [3] is membrane TNF (UniProt P01375). The experiment in a line: cellular binding study with GpL (luciferase) fusion protein; reciprocal competition; memTNF-expressing HEK293 transfectants incubated 90 min with 100 ng/ml TNFR1ed-GpL or TNFR2ed-GpL, alone or mixed with 2,000 ng/ml sTNF or 2,000 ng/ml PGRNAdi; EV transfectants as non-specific binding.

As to Progranulin (from UniProt P28799), the values for the Kd in assay [1] and in assay [2] were 1.52 nM and 1.77 nM, respectively.
Regarding “TNFR1ed-GpL (from UniProt P19438 30-211) (receptor)”, the specific binding, fold over background (the pair that is blocked) in assay [3] was more than 2000 fold.
In assay [3], “TNFR2ed-GpL (from UniProt P20333 23-257) (receptor)” returned a specific binding, fold over background (the pair that is blocked) of more than 200 fold.
